B1: 153/154 H6/H6 (dsDNA)
DNA 1: AGTTGAGGACTTTCCAGGC
DNA 2: GCCTGGAAAGTCCTCAACT
modifications: PS at the 6 3'-most linkages of each strand
B2: 153/154 PO (dsDNA)
DNA 1: AGTTGAGGACTTTCCAGGC
DNA 2: GCCTGGAAAGTCCTCAACT
modifications: full phosphodiester, both strands
B3: 153/154 H8/H8 (dsDNA)
DNA 1: AGTTGAGGACTTTCCAGGC
DNA 2: GCCTGGAAAGTCCTCAACT
modifications: PS at the 8 3'-most linkages of each strand
B4: 153/154 H5/H5 (dsDNA)
DNA 1: AGTTGAGGACTTTCCAGGC
DNA 2: GCCTGGAAAGTCCTCAACT
modifications: PS at the 5 3'-most linkages of each strand
B5: decoy 151 D-Z (dsDNA)
DNA 1: AGTTGAGGGATTTCCAGGC
DNA 2: GCCTGGAAATCCCTCAACT
B6: decoy 173 E-Z-4 (dsDNA)
DNA 1: TTGAGGACTTTCCAG
DNA 2: CTGGAAAGTCCTCAA
B7: 153/154 H8/H10 (dsDNA)
DNA 1: AGTTGAGGACTTTCCAGGC
DNA 2: GCCTGGAAAGTCCTCAACT
modifications: PS at the 8 (153) and 10 (154) 3'-most linkages
B8: decoy 129 D-V (dsDNA)
DNA 1: TCGGGATTTCCTC
DNA 2: GAGGAAATCCCGA
B9: decoy 281 E-Z EVEN (dsDNA)
DNA 1: TTGAGGACTTTCCAGGC
DNA 2: GCCTGGAAAGTCCTCAA
B10: 153/154 H3/H3 (dsDNA)
DNA 1: AGTTGAGGACTTTCCAGGC
DNA 2: GCCTGGAAAGTCCTCAACT
modifications: PS at the 3 3'-most linkages of each strand
B11: decoy 123 A-W (dsDNA)
DNA 1: CTCGGGACTTTCCTGT
DNA 2: ACAGGAAAGTCCCGAG
B12: 153/154 PS/PO (dsDNA)
DNA 1: AGTTGAGGACTTTCCAGGC
DNA 2: GCCTGGAAAGTCCTCAACT
modifications: strand 153 full PS; strand 154 PO
B13: decoy 121 A-V (dsDNA)
DNA 1: TCGGGACTTTCCTC
DNA 2: GAGGAAAGTCCCGA
B14: decoy 259 E-Z' (dsDNA)
DNA 1: TTGAGGACTTTCCAGGCTC
DNA 2: GAGCCTGGAAAGTCCTCAA
B15: decoy 191 A-X (dsDNA)
DNA 1: CTGGGACTTTCCTC
DNA 2: GAGGAAAGTCCCAG
B16: 153/154 H10/H10 (dsDNA)
DNA 1: AGTTGAGGACTTTCCAGGC
DNA 2: GCCTGGAAAGTCCTCAACT
modifications: PS at the 10 3'-most linkages of each strand
B17: 153/154 H10/H8 (dsDNA)
DNA 1: AGTTGAGGACTTTCCAGGC
DNA 2: GCCTGGAAAGTCCTCAACT
modifications: PS at the 10 (153) and 8 (154) 3'-most linkages
B18: decoy 289 (dsDNA)
DNA 1: TGAGGACTTTCCAGGC
DNA 2: GCCTGGAAAGTCCTCA
B19: decoy 265 I-Z (dsDNA)
DNA 1: AGTTGAGGATTTCCCAGGC
DNA 2: GCCTGGGAAATCCTCAACT
B20: decoy 195 C-V (dsDNA)
DNA 1: TCGGGGACTTTCCCTC
DNA 2: GAGGGAAAGTCCCCGA
B21: decoy 177 E-W (dsDNA)
DNA 1: CTCGGACTTTCCTGT
DNA 2: ACAGGAAAGTCCGAG
B22: 153/154 H11/PO (dsDNA)
DNA 1: AGTTGAGGACTTTCCAGGC
DNA 2: GCCTGGAAAGTCCTCAACT
modifications: strand 153 PS at the 11 3'-most linkages; strand 154 PO
B23: 153/154 PO/H11 (dsDNA)
DNA 1: AGTTGAGGACTTTCCAGGC
DNA 2: GCCTGGAAAGTCCTCAACT
modifications: strand 153 PO; strand 154 PS at the 11 3'-most linkages
B24: decoy 141 A-Z-2 (dsDNA)
DNA 1: GTTGAGGGACTTTCCAGG
DNA 2: CCTGGAAAGTCCCTCAAC
B25: decoy 235 L-V (dsDNA)
DNA 1: TCGGACTTTCCCTC
DNA 2: GAGGGAAAGTCCGA
B26: decoy 263 H-Z (dsDNA)
DNA 1: AGTTGAGGATTTCCAGGC
DNA 2: GCCTGGAAATCCTCAACT
B27: decoy 155 E-V (dsDNA)
DNA 1: TCGGACTTTCCTC
DNA 2: GAGGAAAGTCCGA
B28: 153/154 H4/H4 (dsDNA)
DNA 1: AGTTGAGGACTTTCCAGGC
DNA 2: GCCTGGAAAGTCCTCAACT
modifications: PS at the 4 3'-most linkages of each strand
B29: decoy 227 H-V (dsDNA)
DNA 1: TCGGATTTCCTC
DNA 2: GAGGAAATCCGA
B30: 153/154 H11/H11 (dsDNA)
DNA 1: AGTTGAGGACTTTCCAGGC
DNA 2: GCCTGGAAAGTCCTCAACT
modifications: PS at the 11 3'-most linkages of each strand
B31: decoy 295 (dsDNA)
DNA 1: TGAGGACTTTCCAGGCTC
DNA 2: GAGCCTGGAAAGTCCTCA
B32: decoy 207 L-Z (dsDNA)
DNA 1: AGTTGAGGACTTTCCCAGGC
DNA 2: GCCTGGGAAAGTCCTCAACT
B33: 153/154 H7/H7 (dsDNA)
DNA 1: AGTTGAGGACTTTCCAGGC
DNA 2: GCCTGGAAAGTCCTCAACT
modifications: PS at the 7 3'-most linkages of each strand
B34: decoy 197 C-W (dsDNA)
DNA 1: CTCGGGGACTTTCCCTGT
DNA 2: ACAGGGAAAGTCCCCGAG
B35: decoy 309 M-T (dsDNA)
DNA 1: CCTTGAAGGGATTTCCCTCC
DNA 2: GGAGGGAAATCCCTTCAAGG
B36: decoy 145 A-Z (dsDNA)
DNA 1: AGTTGAGGGACTTTCCAGGC
DNA 2: GCCTGGAAAGTCCCTCAACT
B37: 153/154 PO/H5 (dsDNA)
DNA 1: AGTTGAGGACTTTCCAGGC
DNA 2: GCCTGGAAAGTCCTCAACT
modifications: strand 153 PO; strand 154 PS at the 5 3'-most linkages
B38: decoy 117 E-U (dsDNA)
DNA 1: ATGGACTTTCCGT
DNA 2: ACGGAAAGTCCAT
B39: 153/154 PO/PS (dsDNA)
DNA 1: AGTTGAGGACTTTCCAGGC
DNA 2: GCCTGGAAAGTCCTCAACT
modifications: strand 153 PO; strand 154 full PS
B40: 153/154 H9/H9 (dsDNA)
DNA 1: AGTTGAGGACTTTCCAGGC
DNA 2: GCCTGGAAAGTCCTCAACT
modifications: PS at the 9 3'-most linkages of each strand
B41: decoy 153/154 E-Z (dsDNA)
DNA 1: AGTTGAGGACTTTCCAGGC
DNA 2: GCCTGGAAAGTCCTCAACT
B42: decoy 279 E-Z A->C EVEN (dsDNA)
DNA 1: TTGCGGACTTTCCAGGC
DNA 2: GCCTGGAAAGTCCGCAA
B43: decoy 239 C-W' (dsDNA)
DNA 1: CTCGGGGACTTTCCCTCA
DNA 2: TGAGGGAAAGTCCCCGAG
B44: decoy 221 C-X (dsDNA)
DNA 1: CTGGGGACTTTCCCTC
DNA 2: GAGGGAAAGTCCCCAG
B45: 153/154 H5/PO (dsDNA)
DNA 1: AGTTGAGGACTTTCCAGGC
DNA 2: GCCTGGAAAGTCCTCAACT
modifications: strand 153 PS at the 5 3'-most linkages; strand 154 PO
B46: 153/154 PS/PS (dsDNA)
DNA 1: AGTTGAGGACTTTCCAGGC
DNA 2: GCCTGGAAAGTCCTCAACT
modifications: full PS, both strands

Assays:
[1] = biological target: NF-kB p65/p50 heterodimer (RelA/NFKB1) (Homo sapiens, UniProt Q04206;P19838 Q04206:1-551,P19838:1-433); assay: EMSA; competition vs 32P 113/114 probe; details: protein: extract; tags: none; nuclear extract of LPS-stimulated THP-1 cells
Sequence of NF-kB p65/p50 heterodimer (RelA/NFKB1) (Q04206 whole entry, chain 1 of 2): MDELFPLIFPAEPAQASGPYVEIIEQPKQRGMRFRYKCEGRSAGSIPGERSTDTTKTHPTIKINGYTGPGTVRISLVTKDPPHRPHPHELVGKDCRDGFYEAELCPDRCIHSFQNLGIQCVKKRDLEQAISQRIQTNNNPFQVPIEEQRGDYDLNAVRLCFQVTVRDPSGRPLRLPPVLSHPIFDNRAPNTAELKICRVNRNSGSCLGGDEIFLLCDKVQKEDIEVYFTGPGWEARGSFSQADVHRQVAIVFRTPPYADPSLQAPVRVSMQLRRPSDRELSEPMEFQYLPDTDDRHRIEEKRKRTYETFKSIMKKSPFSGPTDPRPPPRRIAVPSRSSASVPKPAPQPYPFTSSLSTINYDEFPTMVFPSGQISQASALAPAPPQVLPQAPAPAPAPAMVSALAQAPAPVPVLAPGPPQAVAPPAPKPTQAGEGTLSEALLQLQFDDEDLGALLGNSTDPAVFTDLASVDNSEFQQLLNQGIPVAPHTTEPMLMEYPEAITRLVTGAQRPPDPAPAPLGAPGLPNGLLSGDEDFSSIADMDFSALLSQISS
Sequence of NF-kB p65/p50 heterodimer (RelA/NFKB1) (P19838 1-433, chain 2 of 2): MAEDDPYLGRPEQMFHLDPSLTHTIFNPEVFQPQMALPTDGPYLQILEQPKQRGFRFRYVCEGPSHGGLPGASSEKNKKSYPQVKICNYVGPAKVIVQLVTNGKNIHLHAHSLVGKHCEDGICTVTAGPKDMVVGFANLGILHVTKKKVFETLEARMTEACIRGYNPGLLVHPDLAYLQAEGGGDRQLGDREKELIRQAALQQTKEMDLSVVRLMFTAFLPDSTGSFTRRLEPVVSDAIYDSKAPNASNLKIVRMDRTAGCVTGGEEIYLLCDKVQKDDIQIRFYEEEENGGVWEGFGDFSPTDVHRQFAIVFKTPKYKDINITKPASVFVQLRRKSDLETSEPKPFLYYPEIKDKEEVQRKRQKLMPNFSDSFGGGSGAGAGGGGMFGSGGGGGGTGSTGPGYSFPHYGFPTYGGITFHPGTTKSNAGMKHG
Description: (§1) The EMSA assay was employed to characterize oligonucleotide decoys for the NF-κB transcription factor. […] Using the above modified oligonucleotides to compete for binding for the above-mentioned NF-κB family members, it was possible to compare the binding affinity of these oligonucleotides against the high affinity radiolabeled probe and each other. This assay has also enabled the design of a decoy which selectively binds particular members of the NF-κB family. By using increasing concentrations of various oligonucleotides, it was observed that, by deleting or changing targeted residues in the binding site, it was possible to specifically decrease the binding of the decoy molecule to p50/p50 homodimers, while retaining the affinity for p65/p50 and cRel/p50 heterodimers.
(§2) The NF-κB gel shift assays (EMSA) were performed as follows. A double-stranded oligonucleotide containing a consensus NF-κB binding site (5′ […] 3′) (SEQ ID NO: 78) was end-labeled with γ³²P-ATP using T4 Polynucleotide Kinase (Promega). Alternatively, a double-stranded ODN containing a consensus NF-κB binding site from the IL-6 promoter (5′ […] 3′) (SEQ ID NO: 94) was end-labeled with γ³²P-ATP using T4 Polynucleotide Kinase (Promega). One microgram of a nuclear extract prepared from LPS stimulated THP-1 cells (human monocyte cell line) was incubated with 35 fmol of radiolabeled probe in the presence or absence of competing unlabeled NF-κB double-stranded oligonucleotides (dsODN) or scrambled dsODN. The incubations were carried out at room temperature for 30 minutes in a 20 μl reaction volume composed of 10 mM Tris-HCl pH 8, 100 mM KCL, 5 mM MgCl2, 2 mM DTT, 10% Glycerol, 0.1% NP-40, 0.025% BSA and 1 μg Poly-dIdC. The reactions were loaded onto a 6% polyacrylamide gel, subjected to electrophoresis and dried. The dried gels were imaged and quantitated using a Typhoon 8600 PhosphorImager (Amersham) and ImageQuant software.

[2] = biological target: NF-kB p50/p50 homodimer (NFKB1) (Homo sapiens, UniProt P19838 P19838:1-433); assay: EMSA; competition vs 32P 113/114 probe; details: protein: extract; tags: none; nuclear extract of LPS-stimulated THP-1 cells; chain copies: 2 (stated homodimer)
Sequence of NF-kB p50/p50 homodimer (NFKB1) (P19838 1-433, one chain of several): as the sequence (P19838 1-433, chain 2 of 2) above
Description: as §1, §2

Row | Binder | IC50 [1] [fold molar excess] | IC50 [2] [fold molar excess]
1 | B1 | 40 | 
2 | B2 | 58 | 92
3 | B3 | 29 | 
4 | B4 | 50 | 
5 | B5 | 36 | 69
6 | B6 | 55 | 
7 | B7 | 33 | 
8 | B8 | 37.5 | 37.5
9 | B9 | 87 | 
10 | B10 | 45 | 
11 | B11 | 8 | 10
12 | B12 | 5 | 5
13 | B13 | 25 | 34
14 | B14 | 87 | 85
15 | B15 | 19 | 22.5
16 | B16 | 21 | 
17 | B17 | 9 | 
18 | B18 | 93 | 
19 | B19 | 54 | 84
20 | B20 | 8.5 | 9
21 | B21 | 57.5 | 
22 | B22 | 7.5 | 
23 | B23 | 7.5 | 40

Row | Binder | IC50 [1] [fold molar excess] | IC50 [2] [fold molar excess]
24 | B24 | 7.5 | 10
25 | B25 | 37 | 62.5
26 | B26 | 73 | 82
27 | B27 | 81 | 97
28 | B28 | 85 | 
29 | B29 | 74 | 
30 | B30 | 24 | 27
31 | B31 | 92 | 
32 | B32 | 20 | 45
33 | B33 | 39 | 
34 | B34 | 26 | 17.5
35 | B35 | 45 | 50
36 | B36 | 8 | 8
37 | B37 | 65 | 
38 | B38 | 72.5 | 
39 | B39 | 5 | 5
40 | B40 | 17 | 
41 | B41 | 62.4 | 96
42 | B42 | 48 | 52
43 | B43 | 9 | 9
44 | B44 | 25 | 25
45 | B45 | 59 | 
46 | B46 | 5 | 

Reference: patent publication US20070078102A1, “NF-kB oligonucleotide decoy molecules” (published 2007)
